# In FireProtDB (doi:10.1111/j.1432-1033.1992.tb16932.x):
# Details: Escherichia coli (strain K12), CD, reversible: yes, whole UniProt chain shown
# [1] = pH 3, Thermal, glycine-HCl 10 mM
# [2] = pH 5.5, 25 °C, Urea, Sodium acetate 10 mM, NaCl 0.1 M
protein,measurement,setting,value
"Ribonuclease HI wild type, P0A7Y4 (protein) MLKQVEIFTDGSCLGNPGPGGYGAILRYRGREKTFSAGYTRTTNNRMELMAAIVALEALKEHCEVILSTDSQYVRQGITQWIHNWKKRGWKTADKKPVKNVDLWQRLDAALGQHQIKWEWVKGHAGHPENERCDELARAAAMNPTLEDTGYQVEV",Tm,[1],49.8 °C
same,unfolding enthalpy (van 't Hoff),[1],98.1 kcal/mol
same,denaturant m value,[2],1.96 kcal/mol/M
same,denaturant midpoint (higher = more stable),[2],5.01 M
same,unfolding free energy,[2],9.81 kcal/mol
